# Target: PD-1 on human CD4+ T cells (human, UniProt Q15116 25-288)
# Assay: cell-based or functional assay
# Sequence of PD-1 on human CD4+ T cells (Q15116 25-288 limits assumed): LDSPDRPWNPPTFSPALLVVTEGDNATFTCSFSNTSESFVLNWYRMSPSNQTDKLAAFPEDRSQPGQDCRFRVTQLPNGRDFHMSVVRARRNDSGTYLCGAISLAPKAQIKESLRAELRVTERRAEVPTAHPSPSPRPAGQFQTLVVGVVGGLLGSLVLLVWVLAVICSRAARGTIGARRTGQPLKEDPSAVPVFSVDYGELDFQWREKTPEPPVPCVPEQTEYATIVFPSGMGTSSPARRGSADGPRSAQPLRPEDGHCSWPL
"IFN-γ levels in the supernatants of human CD4 T cells (ELISA), 4G9-2 at 25 µg/mL for 72 hours [fold]","ITK/SHP2 ratio (normalized to levels of PD-1), Protein A immunoprecipitation and Western blot [fold]",Binder
3,,"4G9-2 (antibody, human IgG1, kappa, V domains shown) VH: QVQLVQSGAEVKKPGASVKVSCKASGYTFTTYGINWVRQATGQGLEWMGWINTYSGVPGYAQKFQGRVTMTLNTSISTAYMELSSLRSEDTAVYYCARGSGGFAYWGQGTLVTVSS VL: not shown"
,3,"4G9-12 (antibody, V domains shown) VH: QVQLVQSGAEVKKPGASVKVSCKASGYTFTTYGINWVRQATGQGLEWMGWINTYSGVPGYAQKFQGRVTMTLDTSISTAYMELSSLRSEDTAVYYCARGSGGFAYWGQGTLVTVSS VL: not shown"

# — patent US20250136692A1 (GEORGIAMUNE, published 2025)
